Data on 1 molecule can be found in PMC3377666.

The target in the test is recombinant human Pol δ core+p68 trimer (p125/p50/p68) (human) (UniProt P28340).
recombinant human Pol δ core+p68 trimer (p125/p50/p68) (human), sequence (P28340 whole entry, stated change not applied, chain 1 of 3): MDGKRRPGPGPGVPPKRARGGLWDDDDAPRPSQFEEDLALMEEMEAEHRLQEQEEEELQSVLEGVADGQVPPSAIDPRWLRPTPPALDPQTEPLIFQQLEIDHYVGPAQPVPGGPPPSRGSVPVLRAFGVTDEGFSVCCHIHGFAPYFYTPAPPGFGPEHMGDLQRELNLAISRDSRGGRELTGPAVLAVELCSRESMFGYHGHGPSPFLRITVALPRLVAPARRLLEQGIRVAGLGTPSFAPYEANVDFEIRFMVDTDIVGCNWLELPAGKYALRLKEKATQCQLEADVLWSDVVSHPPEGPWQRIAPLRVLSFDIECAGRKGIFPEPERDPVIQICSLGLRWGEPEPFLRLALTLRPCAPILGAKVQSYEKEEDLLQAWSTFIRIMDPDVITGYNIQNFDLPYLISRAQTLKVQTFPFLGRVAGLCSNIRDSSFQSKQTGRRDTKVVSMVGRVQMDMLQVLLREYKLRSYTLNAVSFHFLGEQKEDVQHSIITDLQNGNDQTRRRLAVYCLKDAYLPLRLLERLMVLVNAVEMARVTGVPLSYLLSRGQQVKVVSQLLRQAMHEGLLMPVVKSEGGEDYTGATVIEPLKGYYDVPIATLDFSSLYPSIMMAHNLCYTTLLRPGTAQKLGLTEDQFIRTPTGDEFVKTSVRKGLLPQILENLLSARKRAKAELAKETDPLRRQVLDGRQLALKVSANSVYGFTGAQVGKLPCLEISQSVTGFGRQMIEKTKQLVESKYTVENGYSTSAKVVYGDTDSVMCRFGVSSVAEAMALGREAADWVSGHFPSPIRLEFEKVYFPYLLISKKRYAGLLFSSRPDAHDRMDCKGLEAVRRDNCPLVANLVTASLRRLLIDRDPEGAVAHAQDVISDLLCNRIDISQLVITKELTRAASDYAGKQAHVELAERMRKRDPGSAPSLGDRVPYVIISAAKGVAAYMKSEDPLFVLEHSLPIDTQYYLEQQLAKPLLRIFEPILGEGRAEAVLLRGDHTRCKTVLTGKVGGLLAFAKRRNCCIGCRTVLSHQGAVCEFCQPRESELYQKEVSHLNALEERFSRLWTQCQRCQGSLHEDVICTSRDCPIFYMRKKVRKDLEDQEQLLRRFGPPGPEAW
recombinant human Pol δ core+p68 trimer (p125/p50/p68) (human), sequence (P49005 whole entry, stated change not applied, chain 2 of 3, further chain): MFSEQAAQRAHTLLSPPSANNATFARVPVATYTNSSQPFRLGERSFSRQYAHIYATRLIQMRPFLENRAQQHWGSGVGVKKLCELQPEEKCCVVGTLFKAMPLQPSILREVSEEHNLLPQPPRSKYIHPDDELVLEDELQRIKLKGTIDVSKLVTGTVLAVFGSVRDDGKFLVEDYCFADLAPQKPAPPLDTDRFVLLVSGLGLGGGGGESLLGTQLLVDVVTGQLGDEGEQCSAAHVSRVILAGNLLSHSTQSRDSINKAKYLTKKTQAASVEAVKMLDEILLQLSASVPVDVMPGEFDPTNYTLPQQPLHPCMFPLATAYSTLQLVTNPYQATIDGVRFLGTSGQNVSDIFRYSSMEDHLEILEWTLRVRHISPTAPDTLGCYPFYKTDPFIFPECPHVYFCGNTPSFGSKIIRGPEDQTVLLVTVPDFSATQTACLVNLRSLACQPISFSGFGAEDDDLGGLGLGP
recombinant human Pol δ core+p68 trimer (p125/p50/p68) (human), sequence (Q15054 whole entry, stated change not applied, chain 3 of 3, further chain): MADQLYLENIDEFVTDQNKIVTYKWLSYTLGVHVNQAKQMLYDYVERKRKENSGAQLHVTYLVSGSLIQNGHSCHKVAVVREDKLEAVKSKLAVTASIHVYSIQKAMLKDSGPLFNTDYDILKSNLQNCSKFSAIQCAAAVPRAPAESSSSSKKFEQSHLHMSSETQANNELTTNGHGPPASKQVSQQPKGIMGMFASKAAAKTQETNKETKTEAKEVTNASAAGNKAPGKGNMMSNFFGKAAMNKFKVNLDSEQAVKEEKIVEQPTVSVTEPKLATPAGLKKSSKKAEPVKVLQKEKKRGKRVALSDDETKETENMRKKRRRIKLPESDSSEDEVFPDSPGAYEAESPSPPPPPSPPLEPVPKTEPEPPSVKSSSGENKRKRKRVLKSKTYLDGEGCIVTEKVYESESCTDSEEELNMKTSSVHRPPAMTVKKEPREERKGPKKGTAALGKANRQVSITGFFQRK

B1: non-tagged recombinant p12 (natural protein)
chain: MGRKRLITDSYPVVKRREGPAGHSKGELAPELGEEPQPRDEEEAELELLRQFDLAWQYGPCTGITRLQRWCRAKQMGLEPPPEVWQVLKTHPGDPRFQCSLWHLYPL
For B1, the restoration of Pol δ activity on poly(dA)/oligo(dT) with PCNA, core+p68 (200 fmoles) pre-incubated with 0-400 ng p12 at 4°C for 30 min, against Pol δ4 worked out at 80% and the restoration of Pol δ activity on singly primed M13 DNA, core+p68 (50 fmoles) pre-incubated with 0-400 ng p12, against Pol δ4 was 96%.
